Experimental findings from paper PMC9879961 (Nature Communications, 2023) are described below.

Where a chain is given by its changes, count along the chain named. Names and notes keep the numbering of the source.

The target in data set [1] is T1, RAD51 (UniProt Q06609 1-339).
T1 construct: No tag is named; also called RAD51 recombinase; source: E. coli BLR pRARE (pET11-RAD51), purified (ammonium sulfate, Q Sepharose, hydroxyapatite, Mono-Q)
T1 sequence (looked up): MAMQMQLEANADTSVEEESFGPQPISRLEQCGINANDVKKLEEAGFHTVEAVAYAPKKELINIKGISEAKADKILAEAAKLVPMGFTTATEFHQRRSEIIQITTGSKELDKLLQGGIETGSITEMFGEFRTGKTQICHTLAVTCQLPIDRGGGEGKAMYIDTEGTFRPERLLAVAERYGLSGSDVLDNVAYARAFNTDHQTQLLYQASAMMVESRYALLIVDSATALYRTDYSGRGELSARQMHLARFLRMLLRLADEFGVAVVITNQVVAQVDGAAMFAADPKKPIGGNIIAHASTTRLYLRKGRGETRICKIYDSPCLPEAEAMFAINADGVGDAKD
As to the kind of experiment: pull-down; GST-tagged TR2 polypeptides captured on glutathione-Sepharose with RAD51; 10 µl buffer K (20 mM KH2PO4 pH 7.5, 0.5 mM EDTA, 10% glycerol, 0.01% Igepal) with 150 mM KCl; SDS-PAGE, Coomassie. Particulars: both partners purified.

The next data set has as its target T2, CTRB (Homo sapiens, UniProt P51587 3194-3418).
T2 sequence: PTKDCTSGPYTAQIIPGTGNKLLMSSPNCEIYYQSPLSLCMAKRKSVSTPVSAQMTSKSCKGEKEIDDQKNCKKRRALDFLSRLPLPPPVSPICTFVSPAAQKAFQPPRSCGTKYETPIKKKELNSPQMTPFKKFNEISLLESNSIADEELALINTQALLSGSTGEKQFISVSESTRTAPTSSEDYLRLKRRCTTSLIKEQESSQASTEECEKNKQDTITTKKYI
As to the kind of experiment: EMSA; highest affinity of the three DNAs; EMSA: 10 nM DNA, 35 mM Tris pH 7.5, 1 mM MgCl2, 1 mM DTT, 100 ug/ml BSA, 50 mM KCl, 25 C, 5 min; 8% native PAGE in TAE. As to conditions: protein: recombinant; tags: N-term His6-thioredoxin-S (pET32a), C-term Flag; label: 5' Cy5 on H3; fork 1:2, 40 bp duplex with two 40 nt ssDNA arms. For orientation: Mobility shift assays separate free from complexed probe on a gel.

In data set [2] the target is T1, RAD51. Kind of data set: pull-down; CTRB species held through the S-tag on S-Protein agarose; RAD51 and CTRB 4 µg each; 25 µl buffer T (25 mM Tris-HCl pH 7.5, 0.5 mM EDTA, 10% glycerol, 0.01% Igepal) with 150 mM KCl and Benzonase; on ice 30 min, resin 1 h at 4 °C; SDS-PAGE, Coomassie. Particulars: both partners purified.

B1: GST-TR2 (BRCA2 residues 3265-3330) (domain or fragment, human, UniProt P51587 3265-3330, looked up)
chain: CKKRRALDFLSRLPLPPPVSPICTFVSPAAQKAFQPPRSCGTKYETPIKKKELNSPQMTPFKKFNE
notes: BRCA2, human, TR2 region, residues 3265-3330; also called BRCA2-TR2 polypeptide; source: E. coli Rosetta (pGEX-TR2), purified (glutathione-Sepharose, SP Sepharose); not shown: GST, N-terminal, kept
For B1, the binding result with RAD51 [1] is reported as “binds”.

B2: GST-TR2 with deletion of residues 3306-3310 (domain or fragment, human, UniProt P51587 3265-3330, looked up)
chain: CKKRRALDFLSRLPLPPPVSPICTFVSPAAQKAFQPPRSCGPIKKKELNSPQMTPFKKFNE
notes: BRCA2, human, TR2 region, residues 3265-3330, internally truncated; source: E. coli Rosetta (pGEX-TR2 variant), purified (glutathione-Sepharose, SP Sepharose); not shown: GST, N-terminal, kept
With B2, in the data set with RAD51 [1], the binding result is “binds”.

B3: Fork substrate (Oligo-H3/H5) (mixed)
DNA 1: TTGATAAGAGGTCATTTGAATTCATGGCTTAGAGCTTAATTGCTGAATCTGGTGCTGGGATCCAACATGTTTTAAATATG
DNA 2: CATATTTAAAACATGTTGGATCCCAGCACCAGATTCAGCATACGTTACCGATCGTACGTTCGATGCTGGCTACTGCTAGC
For the molecule B3, in the data set with CTRB, the binding result was “binds”.

B4: GST-TR2 with deletion of residues 3291-3295 (domain or fragment, human, UniProt P51587 3265-3330, looked up)
chain: CKKRRALDFLSRLPLPPPVSPICTFVKAFQPPRSCGTKYETPIKKKELNSPQMTPFKKFNE
notes: as for B2
As to B4, the binding result with RAD51 [1] was “binds”.

B5: CTRB (BRCA2 residues 3194-3418), His6-Thioredoxin-S tagged, C-terminally Flag-tagged (domain or fragment, human, UniProt P51587 3194-3418, looked up)
chain: T2 sequence
notes: BRCA2, human, residues 3194-3418 of the 3,418-residue protein; No tag cleavage is described; also called wild-type CTRB; source: E. coli Rosetta (pET32a), purified (Ni-NTA, Source S, anti-Flag M2, Mono-Q)
For B5, the binding result with RAD51 [2] is given as “binds”.

B6: CTRB-4A (BRCA2 residues 3194-3418, KKRR(3266-3269) to AAAA) (domain or fragment, human, UniProt P51587 3194-3418, looked up)
chain: T2 sequence with K73A, K74A, R75A, R76A
notes: BRCA2, human, residues 3194-3418; also called 4 A mutant; source: E. coli Rosetta (pET32a), purified as the wild type
Regarding B6, in the data set with RAD51 [2], the binding result is recorded as “binds”.

B7: CTRB-S3291E (domain or fragment, human, UniProt P51587 3194-3418, looked up)
chain: T2 sequence with S98E
notes: BRCA2, human, CTRB (residues 3194-3418) with S3291E; Called a CTRB mutant purified as wild-type CTRB; source: E. coli, purified using the procedure developed for wild-type CTRB
For the molecule B7, in the data set with RAD51 [2], the binding result is recorded as “binds”.

B8: CTRB-S3291A (domain or fragment, human, UniProt P51587 3194-3418, looked up)
chain: T2 sequence with S98A
notes: BRCA2, human, CTRB (residues 3194-3418) with S3291A; Called a CTRB mutant purified as wild-type CTRB; source: E. coli, purified using the procedure developed for wild-type CTRB
Consider B8, for which, in the data set with RAD51 [2], the binding result was “binds”.
